The results in this text go back to paper PMC7072329, “Discovery of Kynurenines Containing Oligopeptides as Potent Opioid Receptor Agonists” (Biomolecules, 2020).

This experiment addresses T1, μ-opioid receptor (rat (endogenous in rat brain)), P33535.
T1 chain: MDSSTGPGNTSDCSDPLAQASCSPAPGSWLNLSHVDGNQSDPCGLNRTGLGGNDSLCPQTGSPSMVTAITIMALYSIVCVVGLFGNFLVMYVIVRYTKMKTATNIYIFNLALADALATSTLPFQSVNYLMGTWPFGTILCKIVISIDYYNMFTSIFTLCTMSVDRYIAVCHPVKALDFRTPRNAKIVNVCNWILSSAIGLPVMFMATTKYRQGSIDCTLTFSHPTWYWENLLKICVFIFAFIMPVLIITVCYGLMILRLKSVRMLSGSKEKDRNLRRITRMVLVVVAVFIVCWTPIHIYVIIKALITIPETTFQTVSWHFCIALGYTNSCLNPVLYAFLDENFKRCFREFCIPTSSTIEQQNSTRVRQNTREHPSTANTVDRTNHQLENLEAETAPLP
Description: radioligand binding; displacement of [^3H]DAMGO from rat brain membrane homogenate by unlabelled ligand (10^-10 to 10^-5 M); 50 mM Tris-HCl pH 7.4, 35 °C, 45 min; non-specific binding with 10 μM naloxone; IC50 converted into Ki by Cheng-Prusoff, one site competition fit.

In general, Ki refers to the dissociation constant of the complex between target and ligand, obtained from inhibition or displacement. A lower Ki goes with tighter binding.

B1: endomorphin-2 (EM-2) (peptide)
chain: YPFF
modifications: not checked
The molecule B1 showed a Ki of 3.16 nM.
